Source: patent publication CN116554322A (HEJING MEDICAL TECH SHANGHAI CO LTD, dated 2023)
Read-outs that look alike come from different tables or passages of the source.

T1: 人IL-18Rβ蛋白 (IL-18Rβ antigen) (human)
T1 sequence (O95256 whole entry, species assumed, looked up): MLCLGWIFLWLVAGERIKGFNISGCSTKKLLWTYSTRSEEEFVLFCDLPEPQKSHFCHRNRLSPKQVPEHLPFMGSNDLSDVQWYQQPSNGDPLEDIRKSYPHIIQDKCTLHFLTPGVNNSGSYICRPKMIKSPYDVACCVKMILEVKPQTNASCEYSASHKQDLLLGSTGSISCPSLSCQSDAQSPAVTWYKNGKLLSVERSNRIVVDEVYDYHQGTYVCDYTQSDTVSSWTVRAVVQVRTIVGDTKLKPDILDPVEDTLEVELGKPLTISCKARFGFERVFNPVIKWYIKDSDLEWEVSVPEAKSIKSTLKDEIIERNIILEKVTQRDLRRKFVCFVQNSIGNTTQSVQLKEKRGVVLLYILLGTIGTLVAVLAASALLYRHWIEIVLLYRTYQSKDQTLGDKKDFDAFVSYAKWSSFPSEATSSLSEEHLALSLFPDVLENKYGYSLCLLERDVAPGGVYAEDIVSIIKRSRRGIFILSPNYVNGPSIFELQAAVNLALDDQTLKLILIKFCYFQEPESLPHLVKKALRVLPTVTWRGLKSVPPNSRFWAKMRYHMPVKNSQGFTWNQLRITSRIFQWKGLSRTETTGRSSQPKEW

T2: 人IL-18Rβ蛋白 (IL-18Rβ antigen) (human)
T2 chain: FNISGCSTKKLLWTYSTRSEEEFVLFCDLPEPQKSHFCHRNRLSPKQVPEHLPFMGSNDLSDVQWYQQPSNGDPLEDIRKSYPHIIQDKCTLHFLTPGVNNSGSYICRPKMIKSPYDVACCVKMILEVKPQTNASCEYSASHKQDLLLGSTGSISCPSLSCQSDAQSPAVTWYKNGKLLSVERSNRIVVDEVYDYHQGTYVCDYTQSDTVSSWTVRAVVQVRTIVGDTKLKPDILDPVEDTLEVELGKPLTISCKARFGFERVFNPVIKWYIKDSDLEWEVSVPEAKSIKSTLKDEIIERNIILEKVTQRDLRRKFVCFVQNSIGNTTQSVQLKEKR

T3: IL-18Rβ on KG-1 cells and human PBMC (human, UniProt O95256 20-599)
T3 sequence (looked up): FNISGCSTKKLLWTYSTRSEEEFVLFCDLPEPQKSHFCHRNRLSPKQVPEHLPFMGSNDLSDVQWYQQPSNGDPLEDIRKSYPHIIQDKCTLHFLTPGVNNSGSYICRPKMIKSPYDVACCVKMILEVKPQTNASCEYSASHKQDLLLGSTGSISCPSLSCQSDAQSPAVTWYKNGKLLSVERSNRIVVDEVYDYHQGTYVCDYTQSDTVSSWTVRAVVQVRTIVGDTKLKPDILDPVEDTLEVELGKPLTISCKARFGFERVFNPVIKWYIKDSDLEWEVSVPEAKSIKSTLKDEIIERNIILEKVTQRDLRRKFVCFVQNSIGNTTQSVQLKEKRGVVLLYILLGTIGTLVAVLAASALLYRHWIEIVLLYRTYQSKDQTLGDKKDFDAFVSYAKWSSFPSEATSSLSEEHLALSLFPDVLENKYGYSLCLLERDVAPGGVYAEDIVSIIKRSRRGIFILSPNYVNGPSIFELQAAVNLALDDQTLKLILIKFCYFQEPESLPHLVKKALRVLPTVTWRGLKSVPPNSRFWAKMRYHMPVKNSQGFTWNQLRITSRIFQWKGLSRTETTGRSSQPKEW


What was measured:
[1] = target: T1, 人IL-18Rβ蛋白 (IL-18Rβ antigen) (human); test: SPR (Biacore 8K), Fab captured; ratio of kd, the reference itself
[2] = target: T1, 人IL-18Rβ蛋白 (IL-18Rβ antigen) (human); test: SPR (Biacore 8K), secreted Fab captured on SASA sensor, antigen injected, 1:1 fit
[3] = target: T2, 人IL-18Rβ蛋白 (IL-18Rβ antigen); test: SPR (Biacore 8K), Fab captured; ratio of kd of C056-WT to kd of the clone
[4] = target: T2, 人IL-18Rβ蛋白 (IL-18Rβ antigen); test: SPR (Biacore 8K), secreted Fab captured on SASA sensor, antigen injected, 1:1 fit
[5] = target: T3, IL-18Rβ on KG-1 cells and human PBMC; test: cell-based or functional assay
[6] = target: T1, 人IL-18Rβ蛋白 (IL-18Rβ antigen) (human); test: SPR (Biacore 8K), antibody captured on protein A chip, human IL-18Rβ 6.25-400 nM injected, 25°C

Row | Binder | 比值(kd) [3] | Kd [4] [nM] | koff [4] [s⁻¹] | kon [4] [M⁻¹ s⁻¹] | IC50(nM), inhibition of IL-18-stimulated IFN-γ release in KG-1 cells [5] [nM] | further results
1 | C056-WT Fab (wild-type anti-IL-18Rβ antibody) (Fab, V domains shown) VH: EVQLVESGGGLVQPGGSLRLSCAASGFNLYYSSMHWVRQAPGKGLEWVASIYSSNGRTYYADSVKGRFTISADTSKNTAYLQMNSLRAEDTAVYYCARSSFSHGYGWYGLDYWGQGTLVTVSS VL: DIQMTQSPSSLSASVGDRVTITCRASQSVSSAVAWYQQKPGKAPKLLIYSASSLYSGVPSRFSGSRSGTDFTLTISSLQPEDFATYYCQQYGYHDAGLITFGQGTKVEIK | – | – | – | – | – | 比值(kd) [1]: 1; Kd [2]: 17.8 nM; koff [2]: 0.00119 s⁻¹; kon [2]: 66600 M⁻¹ s⁻¹
2 | A038 Fab clone (Fab, V domains shown, Mutations against C056-WT: VL-A34E/VH-F27I) VH: EVQLVESGGGLVQPGGSLRLSCAASGINLYYSSMHWVRQAPGKGLEWVASIYSSNGRTYYADSVKGRFTISADTSKNTAYLQMNSLRAEDTAVYYCARSSFSHGYGWYGLDYWGQGTLVTVSS VL: DIQMTQSPSSLSASVGDRVTITCRASQSVSSAVEWYQQKPGKAPKLLIYSASSLYSGVPSRFSGSRSGTDFTLTISSLQPEDFATYYCQQYGYHDAGLITFGQGTKVEIK | 21 | 0.725 | 5.67e-05 | 78200 | – | –
3 | A040 Fab clone (Fab, V domains shown) VH: EVQLVESGGGLVQPGGSLRLSCAASGLNLYYSSMHWVRQAPGKGLEWVASIYSSNGRTYYADSVKGRFTISADTSKNTAYLQMNSLRAEDTAVYYCARSSFSHGYGWYGLDYWGQGTLVTVSS VL: DIQMTQSPSSLSASVGDRVTITCRASQSVSSAVEWYQQKPGKAPKLLIYSASSLYSGVPSRFSGSRSGTDFTLTISSLQPEDFATYYCQQYGYHDAGLITFGQGTKVEIK | 14.9 | 1.04 | 8e-05 | 77000 | – | –
4 | C056-WT full-length antibody (parental antibody WT) (antibody, V domains shown) VH: EVQLVESGGGLVQPGGSLRLSCAASGFNLYYSSMHWVRQAPGKGLEWVASIYSSNGRTYYADSVKGRFTISADTSKNTAYLQMNSLRAEDTAVYYCARSSFSHGYGWYGLDYWGQGTLVTVSS VL: DIQMTQSPSSLSASVGDRVTITCRASQSVSSAVAWYQQKPGKAPKLLIYSASSLYSGVPSRFSGSRSGTDFTLTISSLQPEDFATYYCQQYGYHDAGLITFGQGTKVEIK | – | – | – | – | 8.14 | Kd [6]: 15.8 nM
5 | A037 Fab clone (Fab, V domains shown, Mutations against C056-WT: VL-S31F/VL-A34D/VH-F27L) VH: EVQLVESGGGLVQPGGSLRLSCAASGLNLYYSSMHWVRQAPGKGLEWVASIYSSNGRTYYADSVKGRFTISADTSKNTAYLQMNSLRAEDTAVYYCARSSFSHGYGWYGLDYWGQGTLVTVSS VL: DIQMTQSPSSLSASVGDRVTITCRASQSVSFAVDWYQQKPGKAPKLLIYSASSLYSGVPSRFSGSRSGTDFTLTISSLQPEDFATYYCQQYGYHDAGLITFGQGTKVEIK | 1190 | 0.00847 | 1e-06 | 118000 | – | –
6 | A035 Fab clone (Fab, V domains shown, Mutations against C056-WT: VL-S31F/VL-A34E/VH-F27I/VH-S99A) VH: EVQLVESGGGLVQPGGSLRLSCAASGINLYYSSMHWVRQAPGKGLEWVASIYSSNGRTYYADSVKGRFTISADTSKNTAYLQMNSLRAEDTAVYYCARASFSHGYGWYGLDYWGQGTLVTVSS VL: DIQMTQSPSSLSASVGDRVTITCRASQSVSFAVEWYQQKPGKAPKLLIYSASSLYSGVPSRFSGSRSGTDFTLTISSLQPEDFATYYCQQYGYHDAGLITFGQGTKVEIK | 37.3 | 0.224 | 3.19e-05 | 143000 | – | –

Second part, led by results:

Row | 比值(kd) [3] | Kd [4] [nM] | koff [4] [s⁻¹] | kon [4] [M⁻¹ s⁻¹] | IC50(nM), inhibition of IL-18-stimulated IFN-γ release in KG-1 cells [5] [nM] | Binder | further results
7 | 17.2 | 0.648 | 6.91e-05 | 107000 | – | A036 Fab clone (Fab, V domains shown) VH: EVQLVESGGGLVQPGGSLRLSCAASGINLYYSSMHWVRQAPGKGLEWVASIYSSNGRTYYADSVKGRFTISADTSKNTAYLQMNSLRAEDTAVYYCARASFSHGYGWYGLDYWGQGTLVTVSS VL: DIQMTQSPSSLSASVGDRVTITCRASQSVSSAVDWYQQKPGKAPKLLIYSASSLYSGVPSRFSGSRSGTDFTLTISSLQPEDFATYYCQQYGYHDAGLITFGQGTKVEIK | –
8 | 39.7 | 0.26 | 3e-05 | 115000 | – | A039 Fab clone (Fab, V domains shown, Mutations against C056-WT: VL-A34D/VH-F27I) VH: EVQLVESGGGLVQPGGSLRLSCAASGINLYYSSMHWVRQAPGKGLEWVASIYSSNGRTYYADSVKGRFTISADTSKNTAYLQMNSLRAEDTAVYYCARSSFSHGYGWYGLDYWGQGTLVTVSS VL: DIQMTQSPSSLSASVGDRVTITCRASQSVSSAVDWYQQKPGKAPKLLIYSASSLYSGVPSRFSGSRSGTDFTLTISSLQPEDFATYYCQQYGYHDAGLITFGQGTKVEIK | –
9 | 11.2 | 1.34 | 0.000106 | 79000 | – | A042 Fab clone (Fab, V domains shown) VH: EVQLVESGGGLVQPGGSLRLSCAASGLNLYYSSMHWVRQAPGKGLEWVASIYSSNGRTYYADSVKGRFTISADTSKNTAYLQMNSLRAEDTAVYYCARASFSHGYGWYGLDYWGQGTLVTVSS VL: DIQMTQSPSSLSASVGDRVTITCRASQSVSSAVEWYQQKPGKAPKLLIYSASSLYSGVPSRFSGSRSGTDFTLTISSLQPEDFATYYCQQYGYHDAGLITFGQGTKVEIK | –
10 | – | – | – | – | 0.27 | A037 full-length IgG (antibody, V domains shown) VH: EVQLVESGGGLVQPGGSLRLSCAASGLNLYYSSMHWVRQAPGKGLEWVASIYSSNGRTYYADSVKGRFTISADTSKNTAYLQMNSLRAEDTAVYYCARSSFSHGYGWYGLDYWGQGTLVTVSS VL: DIQMTQSPSSLSASVGDRVTITCRASQSVSFAVDWYQQKPGKAPKLLIYSASSLYSGVPSRFSGSRSGTDFTLTISSLQPEDFATYYCQQYGYHDAGLITFGQGTKVEIK | potency relative to WT antibody, KG-1 IFN-γ assay [5]: ~20 fold
11 | – | – | – | – | 0.26 | A035 full-length IgG (antibody, V domains shown) VH: EVQLVESGGGLVQPGGSLRLSCAASGINLYYSSMHWVRQAPGKGLEWVASIYSSNGRTYYADSVKGRFTISADTSKNTAYLQMNSLRAEDTAVYYCARASFSHGYGWYGLDYWGQGTLVTVSS VL: DIQMTQSPSSLSASVGDRVTITCRASQSVSFAVEWYQQKPGKAPKLLIYSASSLYSGVPSRFSGSRSGTDFTLTISSLQPEDFATYYCQQYGYHDAGLITFGQGTKVEIK | potency relative to WT antibody, KG-1 IFN-γ assay [5]: ~20 fold
12 | – | – | – | – | 0.59 | A039 full-length IgG (antibody, V domains shown) VH: EVQLVESGGGLVQPGGSLRLSCAASGINLYYSSMHWVRQAPGKGLEWVASIYSSNGRTYYADSVKGRFTISADTSKNTAYLQMNSLRAEDTAVYYCARSSFSHGYGWYGLDYWGQGTLVTVSS VL: DIQMTQSPSSLSASVGDRVTITCRASQSVSSAVDWYQQKPGKAPKLLIYSASSLYSGVPSRFSGSRSGTDFTLTISSLQPEDFATYYCQQYGYHDAGLITFGQGTKVEIK | potency relative to WT antibody, KG-1 IFN-γ assay [5]: ~20 fold
13 | 18.7 | 0.415 | 6.35e-05 | 153000 | – | A041 Fab clone (Fab, V domains shown) VH: EVQLVESGGGLVQPGGSLRLSCAASGVNLYYSSMHWVRQAPGKGLEWVASIYSSNGRTYYADSVKGRFTISADTSKNTAYLQMNSLRAEDTAVYYCARASFSHGYGWYGLDYWGQGTLVTVSS VL: DIQMTQSPSSLSASVGDRVTITCRASQSVSFAVDWYQQKPGKAPKLLIYSASSLYSGVPSRFSGSRSGTDFTLTISSLQPEDFATYYCQQYGYHDAGLITFGQGTKVEIK | –
